Measured values reported in the supplement of paper PMC9876800.

Test system: peptide library, one residue held at a place counted from the S/T acceptor
Assay: relative phosphorylation of the sub-library (ratio to the mean residue at this position); higher = residue favoured
Details: human
Summary of the method: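 Relative sub-library phosphorylation, a ratio to the mean residue at that position, was obtained by phosphorimaging and densitometry of spots on streptavidin membranes. Before capture, purified recombinant kinases were incubated for 90 min under kinase-specific conditions with 50 μM biotinylated degenerate peptide sub-libraries and 50 μM ATP spiked with γ-32P-ATP. Each sub-library fixed one residue at one position around a central Ser/Thr.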

Sequence of MAPK10, construct: aa1-426 (P53779 1-426, looked up): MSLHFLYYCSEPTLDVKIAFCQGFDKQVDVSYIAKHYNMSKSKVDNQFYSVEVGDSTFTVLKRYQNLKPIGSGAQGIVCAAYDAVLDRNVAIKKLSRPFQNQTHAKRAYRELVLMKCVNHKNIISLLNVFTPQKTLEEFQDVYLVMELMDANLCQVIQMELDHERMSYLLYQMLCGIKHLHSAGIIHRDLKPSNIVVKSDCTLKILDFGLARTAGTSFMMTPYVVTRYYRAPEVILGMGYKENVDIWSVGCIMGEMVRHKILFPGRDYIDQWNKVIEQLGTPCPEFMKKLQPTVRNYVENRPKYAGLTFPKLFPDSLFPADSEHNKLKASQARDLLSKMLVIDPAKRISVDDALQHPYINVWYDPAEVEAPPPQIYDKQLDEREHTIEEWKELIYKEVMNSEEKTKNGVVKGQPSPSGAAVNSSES

MAPK10, construct: aa1-426 (from UniProt P53779)
relative phosphorylation
Details	at +1	at +2	at +3	at +4	at -1	at -2	at -3	at -4	at -5
A fixed	0.471	0.918	1.3	1.17	1.08	2.16	1.22	1.22	1.17
D fixed	0.256	1	1.44	1.34	0.89	0.958	1.36	1.39	1.42
E fixed	0.234	0.725	1.52	1.25	0.855	0.548	1.15	1.28	1.18
F fixed	0.456	0.765	0.929	0.851	0.752	0.582	1	0.854	0.875
G fixed	0.671	1.12	1.38	1.1	1.16	0.785	1.13	1.06	1.15
H fixed	0.281	1.05	1.19	1.12	1.13	0.552	1.08	1.03	0.964
I fixed	0.351	1.26	0.596	0.783	0.662	1.25	0.735	0.705	0.738
K fixed	0.268	0.779	0.611	0.82	0.982	0.548	0.653	0.783	0.754
L fixed	0.366	1.27	0.77	0.913	1.2	1.96	0.853	0.753	0.644
M fixed	0.369	1.76	0.922	0.888	1.27	1.07	1.06	1.01	0.722
N fixed	0.269	1.03	1.07	1.07	0.849	0.554	1.03	0.84	0.928
P fixed	11.5	0.517	0.564	1.5	1.47	2.13	1.2	1.23	1.33
Q fixed	0.259	1.03	1	1.05	1.37	0.747	0.964	1.01	1.07
R fixed	0.269	0.848	0.945	0.893	1.01	0.612	0.883	0.923	1.07
V fixed	0.367	1.48	0.723	0.82	0.781	1.43	0.717	0.843	0.913
W fixed	0.29	0.723	1.03	0.701	0.722	0.587	1.03	1.1	0.967
Y fixed	0.292	0.734	0.999	0.732	0.815	0.518	0.929	0.962	1.1
pThr fixed	0.434	1.94	1.02	1.4	0.52	1.08	1.06	1.17	1.29
pTyr fixed	0.569	1.23	1.59	1.02	0.893	0.598	1.03	1.64	1.41
